The record followed here is publication PMC2119608.

The assay addresses CD3 gamma subunit, transiently expressed in COS cells (human) (UniProt P09693). The assay can be described thus: co-IP.
Sequence of UniProt P09693 (P09693 23-182): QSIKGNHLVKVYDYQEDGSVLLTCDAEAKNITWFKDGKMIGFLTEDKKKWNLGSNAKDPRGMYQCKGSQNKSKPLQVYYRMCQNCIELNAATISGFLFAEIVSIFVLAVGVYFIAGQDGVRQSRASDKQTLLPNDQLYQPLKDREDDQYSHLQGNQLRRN

Consider “T cell antigen receptor (TCR) beta chain, transiently expressed in COS cells”, for which the percent bound to CD3 subunits amounted to 60%.
